These results are taken from patent publication US20240043505A1 (UNIVERSITY OF PITTSBURGH OF THE COMMONWEALTH SYSTEM OF …, published 2024).

Read-outs that look alike come from different tables or passages of the source.

In assay [1] the target is T1, SARS-CoV-2 spike receptor-binding domain (RBD) (SARS-CoV-2, UniProt P0DTC2 319-541). The assay can be described thus: indirect ELISA on coated RBD ('ELISA affinity'). A general note: ELISA stands for enzyme-linked immunosorbent assay.
The target of assay [2] is T1, SARS-CoV-2 spike receptor-binding ….
The target is the same in assay [3]. The source holds these as a separate data set.
For assay [4], the target named is N501Y.
Assay [5] deals with T2, SARS-CoV-2 RBD E484K mutant (SARS-CoV-2, UniProt P0DTC2 334-527).
In assay [6] the target is T1, SARS-CoV-2 spike receptor-binding …. The source holds these as a separate data set.
Assay [7] concerns the target N501Y. This is another data set of the same source.
Assay [8] concerns the target T1, SARS-CoV-2 spike receptor-binding …. This is another data set of the same source.
Assay [9] addresses T2, SARS-CoV-2 RBD E484K mutant. Description: ELISA.
Assay [10] has as its target T1, SARS-CoV-2 spike receptor-binding …. Description: ELISA.
Assay [11] shares this target. The source holds these as a separate data set.
For assay [12] the target is unchanged. Description: SPR (Biacore 3000), RBD immobilised. For orientation: Surface plasmon resonance follows binding to a sensor surface in real time, without labels.

B1: Nb105 (VHH)
VHH: HVQLVESGGGLVQAGGSLRLSCAVSGRTFSTYGMAWFRQAPGKERDFVATITRSGETTLYADSVKGRFTISRDNAKNTVYLQMNSLKIEDTAVYYCAVRRDSSWGYSRDLFEYDYWGQGTQVTVSS
A word on the IC50: it is the concentration that inhibits the measured activity by half. A lower IC50 goes with higher potency. The EC50 (read off the curve) is the concentration at which the effect is half-maximal. On to B1, for which the values for the half-inhibitory concentration (IC50) in assay [1] and in [2] were 0.26 nM and 0.97 nM, respectively. Further, the “EC50 (read off the curve)” value in [3] is roughly 2 nM. Moreover, the “binding affinity fold change relative to RBD WT” value is -2.69 fold with N501Y [4]; 1.06 fold in the assay with N439K; 1.02 fold in [5]; -1.45 fold with K417N; 1.31 fold with Y453F; -1.1 fold in the assay with A475V.

B2: Nb95 (VHH)
VHH: QVQLVESGGGLVQAGGSLRLSCAASGRTFSSYSMGWFRQAQGKEREFVATINGNGRDTYYTNSVKGRFTISRDDATNTVYLQMNSLKPEDTAIYYCAADKDVYYGYTSFPNEYEYWGQGTQVTVSS
Consider B2, for which the IC50 in [1] is 2.28 nM; in assay [2] it was 6.05 nM. In addition, the “EC50 (read off the curve)” value in assay [6] was roughly 6 nM. Besides, the “binding affinity fold change relative to RBD WT” value was 1.37 fold in the assay with N501Y [4]; -2.19 fold with N439K; 1.15 fold in assay [5]; 1.11 fold with K417N; -1.31 fold with Y453F; 1.21 fold in the assay with A475V.

B3: Nb34 (VHH)
VHH: DVQLVESGGGLVQAGGSLRLSCAASGFTFSNYVMYWGRQAPGKGREWVSGIDSDGSDTAYASSVKGRFTISRDNAKNTLYLQMNNLKPEDTALYYCVKSKDPYGSPWTRSEFDDYWGQGTQVTVSS
Take B3: the IC50 in assay [1] was 0.47 nM; in [2], 0.63 nM. The “binding affinity fold change relative to RBD WT” value is -5.79 fold in the assay with N501Y [4]; 1.18 fold with N439K; 1.07 fold in assay [5]; -1.96 fold with K417N; 1.2 fold with Y453F; -1 fold with A475V. For the same molecule, the “EC50 (read off the curve)” value is roughly 7 nM with N501Y [7] and roughly 1 nM in [8].

B4: Nb12 (VHH)
VHH: HVQLVESGGGLVQAGGSLRLTCAASGGTFSTSTMDMGWFRQAPGKEREFVAVDSWNDGRAYYADSVKGRFTISRDSAKTTLYLQMNSLKPEDTAVYYCAARTERGVYDYWGRGTQVTVSS
B4 had an IC50 in assay [1] of 539 nM.

B5: Nb21 point mutant R31D (VHH)
VHH: QVQLVESGGGLVQAGGSLRLSCAVSGLGAHDVGWFRRAPGKEREFVAAIGANGGNTNYLDSVKGRFTISRDNAKNTIYLQMNSLKPQDTAVYYCAARDIETAEYTYWGQGTQVTVSS
Turning to B5, the binding result in assay [9] and in assay [10] was “no binding” each time.

B6: Nb36 (VHH)
VHH: HVQLVESGGGLVQAGGSLTLTCAASGRTFSSETMDMGWFRQAPGKEREFVAADSWNDGSTYYADSVKGRFTISRDSAKNTLYLQMNSLKPEDTAVYYCAAETYSIYEKDDSWGYWGQGTQVTVSS
In the case of B6, the IC50 in assay [1] is 1.04 nM; in [2], 1.7 nM. Besides, the “binding affinity fold change relative to RBD WT” value is 1.35 fold with N501Y [4]; 1.43 fold with N439K; 1.29 fold in assay [5]; -2.94 fold with K417N; 1.32 fold with Y453F; -1.13 fold in the assay with A475V. The “EC50 (read off the curve)” value in assay [11] is roughly 3 nM.

B7: Nb89 (VHH)
VHH: HVQLVESGGGLVQAGGSLRLSCAASGGTFTTFRMAWFRQTPGKEREFVAASSWGFVNYADPVKGRFTISRDNAKNTVYLEMSSLKTEDTAVYYCAARNPGTGQYDYWGQGTQVTVSS
The Kd is the free concentration of one partner at which half of the binding sites on the other are occupied at equilibrium, for simple one-to-one binding. What is called koff is the first-order rate constant of dissociation. The term kon denotes a measure of how fast the partners come together. Read a low kon as slow association. Molecule B7 yielded a 50% inhibitory concentration (IC50) in assay [1] of 1.09 nM. Besides, in assay [12], the Kd turned out to be 0.108 nM, the koff is 0.000624 s⁻¹ and the kon was 5.78e+06 M⁻¹ s⁻¹.

B8: Nb10 (VHH)
VHH: DVQLVESGGGLVQAGGSLKLSCTASESTFNFNHIDWYRQAPGKQRESVAVITNTDVTNYADSVKGRFTISRDNAKNTVYLQMNSLKPEDTAVYLCNAWRFGPTGVKVDYWGQGTQVTVSS
On to B8, for which the IC50 in [1] was 0.24 nM.

B9: Nb107 (VHH)
VHH: HVQLVESGGGLVQAGGSLRLSCAASGRAIGIHRMAWFRQAPGKERAFVAAIQWTGDMPTYADSLKGRFTISADNAKNTVSLQMTSLKPDDTAVYYCAARSATTALYDYWGQGTQVTVSS
Consider B9, for which, in assay [1], the IC50 was found to be 0.76 nM.
